Assay results taken from patent US20170355750A1 (ACADEMIA SINICA, published 2017).

B1: GH2-50 scFv (scFv)
scFv: DIQMTQSPSSLSASVGDRVTITCRASQDVFYGVAWYQQKPGKAPKLLIFWTTYLYSGVPSRFSGSGSGTDFTLTISSLQPEDFATYYCQQYFNWPLTFGQGTKVEIKRGGSSRSSSSGGGGSGGGGEVQLVESGGGLVQPGGSLRLSCAASGFTINNDGIHWVRQAPGKGLEWVAAIGPFWGSTDYADSVKGRFTISADTSTNTAYLHMNSLRAEDTALYYCARFGNYYDGVMDYWGQGTLVTVSSASAAA
B2: GH2-61 scFv (scFv)
scFv: DIQMTQSPSSLSASVGDRVTITCRASQDVGSNVAWYQQKPGKAPKLLISWSTSLYSGVPSRFSGSGSGTDFTLTISSLQPEDFATYYCQQYGGWPITFGQGTKVEIKRGGGGSIEGRSGGGGSEVQLVESGGGLVQPGGSLRLSCAASGFTINNWGIHWVRQAPGKGLEWVAGIWPYGGYTYYADSVKGRFTISADTSKNTAYLQMNSLRAEDTAVYYCARFYNHHGGVMDYWGQGTLVTVSSASAAA
B3: GH2-20 scFv (scFv)
scFv: DIQMTQSPSSLSASVGDRVTITCRASQDVNNNVAWYQQKPGKAPKLLIYWTTYLYSGVPSRFSGSGSGTDFTLTISSLQPEDFATYYCQQGSNWPITFGQGTKVEIKRGGSSRSSSSGGGGSGGGGEVQLVESGGGLVQPGGSLRLSCAASGLTINDYGIHWVRQAPGKGLEWVASIGPSGGFTSYADSVKGRFTISADTSKNTAYLQMNSLRAEDTAVYYCARFVIYWGFFMDYWGQGTLVTVSSASAAA
B4: GH2-41 scFv (scFv)
scFv: DIQMTQSPSSLSASVGDRVTITCRASQDVSNSVAWYQQKPGKAPKLLISGAAWLYSGVPSRFSGSGSGTDFTLTISSLQPEDFATYYCQQSGNFPLTFGQGTKVEIKRGGSSRSSSSGGGGSGGGGEVQLVESGGGLVQPGGSLRLSCAASGFTISNWGIHWVRQAPGKGLEWVASIGPSGGFTSYADSVKGRFTISADTSKNTAYLQMNSLRAEDTAVYYCARFYIYGGVIMDYWGQGTLVTVSSASAAA
B5: H32 scFv (scFv)
scFv: DIQMTQSPSSLSASVGDRVTITCKASQNVGTAVAWYQQKPGKAPKLLIYSASNRYTGVPSRFSGSGSGTDFTLTISSLQPEDFATYYCQQYSSYPLAFGQGTKVEIKRGGGGSIEGRSGGGGSEVQLVESGGGLVQPGGSLRLSCKASGFNIKDYFMYWVRQAPGKGLEWVGWIDPENGNTIYDPKFQGRFTISADTSKNTAYLQMNSLRAEDTAVYYCTRGYYGSRVLAMDYWGQGTLVTVSSASAAA
notes: also called scFv(H32)

How the values were obtained:
[1] = target: T1, HER2 on the surface of BT474 cells (human, UniProt P04626); experiment: flow cytometry on BT474 cells; scFv detected with AL2-RFP (1:1 scFv:AL fragment); MFI adjusted over cells with AL2-RFP without scFv
T1 construct: full-length receptor on the cell surface
Method: (§1) Mean fluorescence intensities (MFIs) for the same set of scFvs complexed with AL2-RFP in 1:1 ratio of the scFv:AL fragment were measured with N87 (FIG. 10B), SKBR3 (FIG. 10D), BT474 (FIG. 10F), and MCF7 (FIG. 10H) cells by flow cytometry, where the MFIs shown in the y-axis were adjusted over the background value by the cells treated with AL2-RFP without scFv.
(§2) Cells were suspended by trypsin treatment and went through mesh 40-micron pore. About 2×10⁵ cells were incubated with 100 μL scFv at 4° C. for 30 minutes, then washed once with 0.5% FBS 1×PBS (wash buffer), mixed with 1.2 μg AL2-RFP in 50 μL wash buffer at 4° C. for 20 minutes, and then wash twice with washer buffer. After centrifugation and resuspension, cells were analyzed for RFP signal by FACS (BD FACS Canto II).

[2] = target: T2, HER2 on the surface of N87 cells (human, UniProt P04626); experiment: flow cytometry on N87 cells; scFv detected with AL2-RFP (1:1 scFv:AL fragment); MFI adjusted over cells with AL2-RFP without scFv
T2 construct: full-length receptor on the cell surface
Method: as §1, §2

Row | Binder | binding result [1] | binding result [2]
1 | B1 | binds | binds
2 | B2 | binds | binds
3 | B3 | binds | binds
4 | B4 | binds | binds
5 | B5 | binds | binds
